The values that follow come from US20230002478A1 (TWIST BIOSCIENCE, published 2023).

Assay [1] concerns the target T1, SARS-CoV-2 S1 (SARS-CoV-2, UniProt P0DTC2 16-685).
T1 construct: range 16-685
In words: SPR. Background: SPR reads the build-up and loss of mass on a sensor chip optically.

Assay [2] has as its target T2, S1 domain of SARS-CoV S protein (SARS-CoV, UniProt P59594 14-667).
T2 construct: domain: S1
The experiment in a line: SPR.

Assay [3] has as its target T1, SARS-CoV-2 S1. The experiment in a line: SPR. The source holds these as a separate data set.
In assay [4] the target is T2, S1 domain of SARS-CoV S protein. The experiment in a line: cross-binding assay on the S1 domain of SARS-CoV S protein.

Read-outs that look alike come from different tables or passages of the source.

B1: 5-1 (Fc fusion)
chain: EVQLVESGGGLVQPGGSLRLSCAASGGTFSSIGMGWFRQAPGKEREFVAAISWDGGATAYADSVKGRFTISADNSKNTAYLQMNSLKPEDTAVYYCAKEDVGKPFDWGQGTLVTVSS
As a reminder, the Kd is a measure of binding affinity in units of concentration. High values mean weaker binding, low ones tighter binding. In the assay with SARS-CoV-2 S1 [1], B1 registered a Kd of 6.6 nM.

B2: 2-2 (antibody, V domains shown)
VH: EVQLLESGGGLVQPGGSLRLSCAASGFTFSRHAMNWVRQAPGKGLEWVSGISGSGDETYYADSVKGRFTISRDNSKNTLYLQMNSLRAEDTAVYYCARDLPASYYDSSGYYWHNGMDVWGQGTLVTVSS
VL: DIQMTQSPSSLSASVGDRVTITCRASQTINTYLNWYQQKPGKAPKLLIYSASTLQSGVPSRFSGSGSGTDFTLTISSLQPEDFATYYCQQSYSTFTFGQGTKVEIK
B2 yielded a Kd in the assay with SARS-CoV-2 S1 [1] of 21 nM.

B3: 6-63 (Fc fusion)
chain: EVQLVESGGGLVQPGGSLRLSCAASGQTFNMGWFRQAPGKEREFVAAIGSGGSTSYADSVKGRFTISADNSKNTAYLQMNSLKPEDTAVYYCWRLGNDYFDYWGQGTLVTVSS
For B3, the binding result in assay [2] is listed as “no binding”. Also, the Kd turned out to be 65 nM with SARS-CoV-2 S1 [3] and 46 nM in the assay with SARS-CoV-2 S1 [1].

B4: 2-5 (antibody, V domains shown)
VH: EVQLLESGGGLVQPGGSLRLSCAASGFTFSDFAMAWVRQAPGKGLEWVSAISGSGDITYYADSVKGRFTISRDNSKNTLYLQMNSLRAEDTAVYYCAREADGLHSPWHFDLWGQGTLVTVSS
VL: DIQMTQSPSSLSASVGDRVTITCRASQSIHTYLNWYQQKPGKAPKLLIYAASALASGVPSRFSGSGSGTDFTLTISSLQPEDFATYYCQQSYSAPPYTFGQGTKVEIK
In the case of B4, in assay [4], the binding result is “binds”.

B5: 6-3 (Fc fusion)
chain: EVQLVESGGGLVQPGGSLRLSCAASGFTFSPSWMGWFRQAPGKEREFVATINEYGGRNYADSVKGRFTISADNSKNTAYLQMNSLKPEDTAVYYCARVDRDFDYWGQGTLVTVSS
Take B5: in assay [2], the binding result was “no binding”. Also, the Kd with SARS-CoV-2 S1 [3] was 11 nM; with SARS-CoV-2 S1 [1], 32 nM.

B6: 6-42 (Fc fusion)
chain: EVQLVESGGGLVQPGGSLRLSCAASGDTYGSYWMGWFRQAPGKEREFVAVITSGGSTNYADSVKGRFTISADNSKNTAYLQMNSLKPEDTAVYYCTHVQNSYYYAMDVWGQGTLVTVSS
Consider B6, for which the binding result with SARS-CoV-2 S1 [1] is reported as “binds”.
